Results reported in publication PMC7187728 (Biochemistry, 2018).

Assays:
[1] = biological target: T1, AaOSBS (Alicyclobacillus acidocaldarius, UniProt Z9M799VK71); assay: inhibition of OSBS activity, SHCHC loss at […] nm; type: biochemical
T1 sequence (Z9M799VK71 4-380): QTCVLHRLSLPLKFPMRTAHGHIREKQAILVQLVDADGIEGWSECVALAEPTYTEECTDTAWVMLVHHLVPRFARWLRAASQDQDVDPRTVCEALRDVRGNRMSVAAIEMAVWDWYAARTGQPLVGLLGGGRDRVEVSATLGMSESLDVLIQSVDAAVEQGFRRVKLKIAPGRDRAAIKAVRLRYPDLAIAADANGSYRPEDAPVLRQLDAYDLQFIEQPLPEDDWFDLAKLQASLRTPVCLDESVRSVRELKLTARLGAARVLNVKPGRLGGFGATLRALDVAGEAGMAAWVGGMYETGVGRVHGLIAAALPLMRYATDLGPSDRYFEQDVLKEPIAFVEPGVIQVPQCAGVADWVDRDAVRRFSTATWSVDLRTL

[2] = tested on: O=C(O)CCC(=O)C1=CC=C[C@@H](O)[C@@H]1C(=O)O; assay: purified protein; type: biochemical, Alicyclobacillus acidocaldarius; conditions: 50 mM Tris pH 8.0, 0.1 mM MnCl2, 25 °C
[3] = substrate: O=C(O)CCC(=O)C1=CC=C[C@@H](O)[C@@H]1C(=O)O; assay: purified protein; type: biochemical, Roseiflexus castenholzii; conditions: 50 mM Tris pH 8.0, 0.1 mM MnCl2, 25 °C
[4] = substrate: O=C(O)CCC(=O)N[C@@H](C(=O)O)c1ccccc1; assay: purified protein; type: biochemical, Roseiflexus castenholzii; conditions: 200 mM Tris pH 8.0, 0.1 mM MnCl2
[5] = substrate: O=C(O)CCC(=O)C1=CC=C[C@@H](O)[C@@H]1C(=O)O; assay: purified protein; type: biochemical, Amycolatopsis mediterranei; conditions: 50 mM Tris pH 8.0, 0.1 mM MnCl2, 25 °C
[6] = substrate: O=C(O)CCC(=O)N[C@@H](C(=O)O)c1ccccc1; assay: purified protein; type: biochemical, Amycolatopsis mediterranei; conditions: 200 mM Tris pH 8.0, 0.1 mM MnCl2

O=C(O)CCC(=O)N[C@@H](C(=O)O)c1ccccc1 [D-NSPG, N-succinyl-D-phenylglycine]
Ki [1]: 3.6 ± 0.4 mM

O=C(O)CCC(=O)N[C@H](C(=O)O)c1ccccc1 [L-NSPG, N-succinyl-L-phenylglycine]
Ki [1]: 2.6 ± 0.4 mM

AaOSBS (Alicyclobacillus acidocaldarius)
Km [2]: 118 ± 18 µM | kcat [2]: 64 ± 3 s⁻¹ | kcat/Km [2]: 540000 M⁻¹ s⁻¹

B1: RcNSAR/OSBS (Roseiflexus castenholzii DSM 13941) (protein)
chain: MKIESITLHHIDMPLVAPFETSFGRETHRPCILIEMRADGLTGWGECVAGAGPWYAYETIGTAWHIISDFLAPMIVGQEITEPIGIVERFASVRGHPMARAAVEAAFWDLYAQARGVSLARLIGATRDRVTVGVSVGIELTLEAQLASIERFVAAGYARIKLKIKPGWDVAVVRAVRERWPDIALQVDANSAYTPDDAPIFRELDEMNLLLIEQPLHHDDIVDHARLQAQISTPICLDESIHSPEHARWALDIDACRVINIKIGRVGGLTAARQIHDLCAERGVPVWCGGMLETNVGRAVNLALAALPNFALPGDISASARYYHRDIAAPDFVLNDDSTITVPDTPGTGVAVLPERLRDVQVREVIIGKG
Km [3]: 155 ± 22 µM | kcat [3]: 38 ± 3 s⁻¹ | kcat/Km [3]: 250000 M⁻¹ s⁻¹ | Km [4]: 1800 ± 230 µM | kcat [4]: 15 ± 4 s⁻¹ | kcat/Km [4]: 8300 M⁻¹ s⁻¹

B2: AmedNSAR (Amycolatopsis mediterranei S699) (protein)
chain: MKLTGVELLRVRMPLVAPFRTSFGTQAERELLLLRAVTSEGEGWGECGAMAGPLYSAEYIDGVEHVLQAFLVPALLAAGDLTAHKVAPLLAKFKGHRMAKAALEMAVLDAELRAHGLSFGTALGSTSDSVPCGVSVGIMDSIPQLVDVVGGYLDAGYLRIKLKIEPGWDVEPVRAVRERFGDDILLQVDANTAYTLSDVPQLQRLDPFGLLLIEQPLEEEDVLGHAELARHLRTPICLDETVVSAASAAAAIRLGACRIVNIKPSRVGGYLEARRVHDVCAAHGIPVWCGGMLETGLGRAANVALASLPGFTLPGDTSASDRFYRTDITEPFVLEAGRLPVPSGPGLGVTPIPERLAEVTTAKSWLA
Km [5]: 415 ± 39 µM | kcat [5]: 242 ± 11 s⁻¹ | kcat/Km [5]: 580000 M⁻¹ s⁻¹ | Km [6]: 2800 ± 550 µM | kcat [6]: 74 ± 7 s⁻¹ | kcat/Km [6]: 26000 M⁻¹ s⁻¹
